From patent US20090285840A1, “METHODS FOR TREATING PATHOLOGICAL NEOVASCULARIZATION” (New York Society for the Ruptured and Crippled Maintaining …, priority 2008, published 2009)

How the values were obtained:
[1] = target: alkaline phosphatase tagged CD40 (amino acids 24-278) (UniProt P27512)
[2] = target: T1, alkaline phosphatase tagged VCAM-1 (amino acids 28-739) (UniProt P29533)
T1 sequence: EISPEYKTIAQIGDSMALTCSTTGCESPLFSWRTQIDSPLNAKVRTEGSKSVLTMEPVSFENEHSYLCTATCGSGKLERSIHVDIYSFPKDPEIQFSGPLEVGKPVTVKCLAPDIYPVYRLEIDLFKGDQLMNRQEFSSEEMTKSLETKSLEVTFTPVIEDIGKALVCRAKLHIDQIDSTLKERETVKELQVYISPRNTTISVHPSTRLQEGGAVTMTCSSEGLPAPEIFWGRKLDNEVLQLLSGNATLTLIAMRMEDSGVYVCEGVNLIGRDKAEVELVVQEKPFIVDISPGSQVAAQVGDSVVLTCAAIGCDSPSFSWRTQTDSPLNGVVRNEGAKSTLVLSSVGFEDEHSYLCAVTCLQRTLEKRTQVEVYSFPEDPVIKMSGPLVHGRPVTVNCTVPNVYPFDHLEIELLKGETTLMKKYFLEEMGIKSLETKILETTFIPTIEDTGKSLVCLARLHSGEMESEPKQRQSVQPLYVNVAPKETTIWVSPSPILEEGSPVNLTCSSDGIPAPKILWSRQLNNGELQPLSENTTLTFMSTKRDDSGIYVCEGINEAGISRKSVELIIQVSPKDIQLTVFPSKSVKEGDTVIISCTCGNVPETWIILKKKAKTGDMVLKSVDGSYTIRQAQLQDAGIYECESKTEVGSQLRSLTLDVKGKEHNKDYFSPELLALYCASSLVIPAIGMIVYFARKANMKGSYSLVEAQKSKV

[3] = target: T2, alkaline phosphatase tagged CD34 (amino acids 31-385) (UniProt Q64314)
T2 sequence: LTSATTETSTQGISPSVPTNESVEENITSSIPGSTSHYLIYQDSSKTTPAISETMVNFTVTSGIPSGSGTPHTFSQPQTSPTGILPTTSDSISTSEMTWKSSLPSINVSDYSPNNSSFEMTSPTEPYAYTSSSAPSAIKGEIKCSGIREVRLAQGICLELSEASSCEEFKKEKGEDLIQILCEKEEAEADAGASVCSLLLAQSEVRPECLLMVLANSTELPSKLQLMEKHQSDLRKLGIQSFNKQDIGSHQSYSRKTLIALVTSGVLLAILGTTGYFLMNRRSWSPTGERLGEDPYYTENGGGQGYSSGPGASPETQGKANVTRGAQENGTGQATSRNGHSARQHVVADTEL

[4] = target: T3, alkaline phosphatase tagged E-Selectin (amino acids 31-612) (UniProt Q00690)
T3 sequence: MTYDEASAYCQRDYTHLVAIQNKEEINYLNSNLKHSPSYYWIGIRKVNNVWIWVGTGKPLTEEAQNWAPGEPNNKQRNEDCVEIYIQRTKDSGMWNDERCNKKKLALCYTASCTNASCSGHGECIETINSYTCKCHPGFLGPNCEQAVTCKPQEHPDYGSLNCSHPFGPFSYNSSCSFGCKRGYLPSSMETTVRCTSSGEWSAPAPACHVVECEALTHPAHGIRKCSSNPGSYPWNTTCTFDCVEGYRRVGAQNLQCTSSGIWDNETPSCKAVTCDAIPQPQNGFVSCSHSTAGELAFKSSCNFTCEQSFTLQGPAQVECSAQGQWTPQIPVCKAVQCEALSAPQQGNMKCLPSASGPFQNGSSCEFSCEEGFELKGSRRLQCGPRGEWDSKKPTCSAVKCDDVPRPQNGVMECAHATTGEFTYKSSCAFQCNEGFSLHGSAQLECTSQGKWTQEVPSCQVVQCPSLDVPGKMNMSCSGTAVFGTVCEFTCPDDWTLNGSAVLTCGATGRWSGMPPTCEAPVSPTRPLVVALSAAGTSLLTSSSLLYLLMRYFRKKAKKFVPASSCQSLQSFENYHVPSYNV

[5] = target: alkaline phosphatase tagged Tie-2 (amino acids 580-833) (UniProt Q02858)
Chain of UniProt Q02858 (Q02858 580-833): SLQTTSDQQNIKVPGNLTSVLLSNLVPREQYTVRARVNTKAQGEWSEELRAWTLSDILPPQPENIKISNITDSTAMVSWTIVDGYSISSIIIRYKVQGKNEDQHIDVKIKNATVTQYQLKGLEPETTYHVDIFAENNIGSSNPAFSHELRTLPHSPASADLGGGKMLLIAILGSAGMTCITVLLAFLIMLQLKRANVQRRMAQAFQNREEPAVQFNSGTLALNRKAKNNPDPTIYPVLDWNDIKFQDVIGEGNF

[6] = target: alkaline phosphatase tagged VE-Cadherin (UniProt P05187)
[7] = target: alkaline phosphatase tagged ICAM-1 (amino acids 26-532) (UniProt P13597)
Chain of UniProt P13597 (P13597 26-532): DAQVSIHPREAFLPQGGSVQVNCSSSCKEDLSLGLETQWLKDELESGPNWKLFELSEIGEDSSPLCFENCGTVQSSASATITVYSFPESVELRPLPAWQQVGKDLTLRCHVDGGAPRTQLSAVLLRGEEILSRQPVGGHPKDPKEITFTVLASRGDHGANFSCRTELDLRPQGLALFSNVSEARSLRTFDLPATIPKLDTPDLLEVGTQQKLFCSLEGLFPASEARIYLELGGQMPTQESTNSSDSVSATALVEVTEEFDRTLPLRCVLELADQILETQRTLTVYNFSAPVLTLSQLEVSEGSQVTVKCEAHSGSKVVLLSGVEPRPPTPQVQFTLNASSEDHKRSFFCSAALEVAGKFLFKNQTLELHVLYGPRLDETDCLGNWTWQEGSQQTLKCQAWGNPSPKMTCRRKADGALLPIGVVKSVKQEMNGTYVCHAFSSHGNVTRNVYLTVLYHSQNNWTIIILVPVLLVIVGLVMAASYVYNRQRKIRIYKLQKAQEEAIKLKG

[8] = target: alkaline phosphatase tagged CD36 (UniProt P05187)
[9] = target: alkaline phosphatase tagged EphrinB2 (UniProt P05187)
[10] = target: alkaline phosphatase tagged FLK-1 (amino acids 605-859) (UniProt P35918)
Chain of UniProt P35918 (P35918 605-859): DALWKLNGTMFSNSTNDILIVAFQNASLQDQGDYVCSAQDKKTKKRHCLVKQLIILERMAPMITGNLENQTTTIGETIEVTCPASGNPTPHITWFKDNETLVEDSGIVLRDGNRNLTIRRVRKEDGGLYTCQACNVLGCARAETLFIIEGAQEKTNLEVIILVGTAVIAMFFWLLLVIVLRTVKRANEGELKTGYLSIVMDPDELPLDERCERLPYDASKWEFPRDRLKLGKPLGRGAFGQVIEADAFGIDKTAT

[11] = target: alkaline phosphatase tagged EphB4 (UniProt P05187)
ADAM9 = ADAM9 expression in mouse embryonic fibroblasts treated with H2O2 (immunoblot); assay type: cell-based; settings: MEF cells from wildtype mice, H2O2 200 μM (highest concentration), 6 hrs
EphB4 = experiment: Alkaline phosphatase shedding assay of transiently expressed EphB4 in mouse embryonic fibroblasts treated with H2O2; assay type: cell-based
Experimental: Stimulation of ADAM9-dependent shedding. […] Alkaline phosphatase shedding assays were performed as described (Weskamp et al., 1996, Cell Biol. 132:717-726; Zheng et al., 2002, J. BioI. Chem. 277:42463-42470) in (mouse embryonic fibroblasts) MEF cells and in pig aortic endothelial cells (PAE cells, kindly provided by Dr. Shahin Rafii). Reactive oxygen species (ROS) assays were performed using a modified version of the procedure reported by Sung et al., 2006, Cancer Res 66:9519-26). Specifically, 20 hours post-transfection, cells maintained at 50-60% culture density were washed twice with OptiMem over the course of 1 hour. […] The resulting supernatants and lysates were collected and assayed in triplicate for alkaline phosphatase activity as described previously (Sahin et al., 2006, “A sensitive method to monitor ectodomain shedding of ligands of the epidermal growth factor receptor,” In Epidermal Growth Factor: Methods and Protocols, In P. J. B. and T. B. Patel eds., Vol. 327, p. 99-113., Humana Press Inc., Totowa, N.J.; Sahin et al., J. Cell Biol. 164:769779; Zheng et al., 2002, J. BioI. Chem. 277:42463-42470). All data presented here representative example from at least three independent assays.
The shedding of EphB4 from Adam9 −/− cells could be rescued by transfection with ADAM9, however, the resulting activity could not be further enhanced by treatment with H2O2. […]

Chain of ADAM9 (wild type, overexpressed from an expression construct) (Q13443 whole entry): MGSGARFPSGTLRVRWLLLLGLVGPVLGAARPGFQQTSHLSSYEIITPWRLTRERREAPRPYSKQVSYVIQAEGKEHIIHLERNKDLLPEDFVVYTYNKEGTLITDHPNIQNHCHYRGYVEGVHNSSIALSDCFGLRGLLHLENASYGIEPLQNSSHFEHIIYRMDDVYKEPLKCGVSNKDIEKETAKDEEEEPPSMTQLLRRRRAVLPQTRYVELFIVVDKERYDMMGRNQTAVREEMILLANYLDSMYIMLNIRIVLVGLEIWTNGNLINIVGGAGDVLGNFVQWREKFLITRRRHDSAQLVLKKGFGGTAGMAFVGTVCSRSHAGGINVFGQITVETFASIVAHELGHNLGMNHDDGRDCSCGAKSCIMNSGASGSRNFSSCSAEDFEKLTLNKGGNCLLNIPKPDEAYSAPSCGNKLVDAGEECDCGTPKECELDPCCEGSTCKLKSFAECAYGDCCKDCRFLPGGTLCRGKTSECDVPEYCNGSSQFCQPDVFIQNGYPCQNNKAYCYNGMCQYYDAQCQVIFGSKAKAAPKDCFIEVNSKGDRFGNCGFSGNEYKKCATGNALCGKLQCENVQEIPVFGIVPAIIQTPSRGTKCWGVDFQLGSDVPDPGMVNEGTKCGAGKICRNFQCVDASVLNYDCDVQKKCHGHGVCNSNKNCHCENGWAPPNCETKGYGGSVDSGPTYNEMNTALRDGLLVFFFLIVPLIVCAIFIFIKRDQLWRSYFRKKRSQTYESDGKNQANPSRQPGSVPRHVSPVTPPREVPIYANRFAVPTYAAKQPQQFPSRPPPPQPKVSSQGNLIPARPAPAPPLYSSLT
Chain of UniProt P27512 (P27512 24-278): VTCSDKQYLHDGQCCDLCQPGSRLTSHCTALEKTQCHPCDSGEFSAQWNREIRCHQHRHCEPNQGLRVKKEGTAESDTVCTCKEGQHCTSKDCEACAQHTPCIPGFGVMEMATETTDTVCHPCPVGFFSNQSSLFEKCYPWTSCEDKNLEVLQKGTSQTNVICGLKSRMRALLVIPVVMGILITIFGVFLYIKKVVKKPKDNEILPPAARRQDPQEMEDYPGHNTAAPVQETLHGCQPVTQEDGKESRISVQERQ

| Molecule | shedding (alkaline phosphatase activity released into the supernatant) [1] | shedding (alkaline phosphatase activity released into the supernatant) [2] | shedding (alkaline phosphatase activity released into the supernatant) [3] | shedding (alkaline phosphatase activity released into the supernatant) [4] | shedding (alkaline phosphatase activity released into the supernatant) [5] | shedding (alkaline phosphatase activity released into the supernatant) [6] | shedding (alkaline phosphatase activity released into the supernatant) [7] | shedding (alkaline phosphatase activity released into the supernatant) [8] | shedding (alkaline phosphatase activity released into the supernatant) [9] | shedding (alkaline phosphatase activity released into the supernatant) [10] | shedding (alkaline phosphatase activity released into the supernatant) [11] | ADAM9 expression (ADAM9) | EphB4 shedding (EphB4; Adam9 −/− cells expressing EphB4, 100 or 200 μM H2O2) | shedding of transiently expressed EphB4 (EphB4; wt MEF cells, 100 or 200 μM H2O2 for 6 hrs) |
| --- | --- | --- | --- | --- | --- | --- | --- | --- | --- | --- | --- | --- | --- | --- |
| ADAM9 (wild type, overexpressed from an expression construct) | overexpression of ADAM9 increased the shedding of CD40, EphB4, Flk1, Tie-2, VE-cadherin and VCAM compared to cells overexpressing ADAM9 E>A together with these substrates | overexpression of ADAM9 increased the shedding of CD40, EphB4, Flk1, Tie-2, VE-cadherin and VCAM compared to cells overexpressing ADAM9 E>A together with these substrates | Overexpression of ADAM9 did not increase the shedding of E-selectin, ICAM-1, Ephrin B2, CD34 and CD36 compared to ADAM9 E>A, at least under the conditions used here | Overexpression of ADAM9 did not increase the shedding of E-selectin, ICAM-1, Ephrin B2, CD34 and CD36 compared to ADAM9 E>A, at least under the conditions used here | overexpression of ADAM9 increased the shedding of CD40, EphB4, Flk1, Tie-2, VE-cadherin and VCAM compared to cells overexpressing ADAM9 E>A together with these substrates | overexpression of ADAM9 increased the shedding of CD40, EphB4, Flk1, Tie-2, VE-cadherin and VCAM compared to cells overexpressing ADAM9 E>A together with these substrates | Overexpression of ADAM9 did not increase the shedding of E-selectin, ICAM-1, Ephrin B2, CD34 and CD36 compared to ADAM9 E>A, at least under the conditions used here | Overexpression of ADAM9 did not increase the shedding of E-selectin, ICAM-1, Ephrin B2, CD34 and CD36 compared to ADAM9 E>A, at least under the conditions used here | Overexpression of ADAM9 did not increase the shedding of E-selectin, ICAM-1, Ephrin B2, CD34 and CD36 compared to ADAM9 E>A, at least under the conditions used here | overexpression of ADAM9 increased the shedding of CD40, EphB4, Flk1, Tie-2, VE-cadherin and VCAM compared to cells overexpressing ADAM9 E>A together with these substrates | overexpression of ADAM9 increased the shedding of CD40, EphB4, Flk1, Tie-2, VE-cadherin and VCAM compared to cells overexpressing ADAM9 E>A together with these substrates |  |  |  |
| OO [H2O2] |  |  |  |  |  |  |  |  |  |  |  | increase in ADAM9 expression | no increase in EphB4 shedding | strong increase in the shedding |
